Measurements: patent publication US20200270588A1, “GLUCOSYL TRANSFERASE POLYPEPTIDES AND METHODS OF USE” (Syngenta Participations AG, priority 2017, published 2020)

Test: UDP luminescence plate assay of E. coli extracts, mutants within SEQ ID No: 17, 2 mM metribuzin
Type: biochemical, Zea mays
Settings: for metribuzin signal relative to the SEQ ID No:17 control (first parentheses) / ratio of metribuzin to DMSO signal (second parentheses) / SIGNAL: metribuzin signal of mutant divided by the signal of the SEQ ID No. 17 control / luminescence signal observed with 2 mM metribuzin: 2 mM metribuzin; for metribuzin signal relative to the SEQ ID No:17 control (first parentheses) / ratio of metribuzin to DMSO signal (second parentheses): additional mutation in SEQ ID No: 17; for SIGNAL: metribuzin signal of mutant divided by the signal of the SEQ ID No. 17 control: relative to SEQ ID No: 17 control; for luminescence signal in the DMSO control / luminescence signal observed with 2 mM metribuzin: additional mutations within SEQ ID No: 17; for luminescence signal in the DMSO control: DMSO in place of metribuzin; for luminescence signal observed with 2 mM metribuzin: control = SEQ ID No: 17
Description: Activities observed with metribuzin were generally lower in magnitude than seen with herbicide V in the previous examples. For example, in one plate assay run with 2 mM metribuzin using 5 ul of diluted extract of plate-grown BL21DE3 cells expressing w/t bx9 and assayed for 40 minutes (as described in Example 2) the UDP-Glo luminescence signal was ˜3.4 E6 as compared with ˜2.3E6 in the DMSO control and ˜1.7E6 in the H24A null mutant control. […] It was therefore important to assess potential improvements in the metribuzin activity of the various mutants relative to the wild type bx9 enzyme based not only on the H24A null activity control but also based upon controls with DMSO in place of metribuzin acceptor substrate. In some plate assays (using more dilute extracts) the metribuzin signals from the w/t enzyme was the same or barely greater than the DMSO control. Additionally, some mutations gave an increase in the ‘background’ UDP-glucose hydrolysis activity with just DMSO present that was the same or similar to the magnitude of the increase in signal seen with metribuzin. In these instances it is therefore uncertain from just this UDP-Glo assay method whether the specific metribuzin signal (glucosylation of metribuzin) is improved or not i.e. the signal seen with metribuzin may or may not all or to a large part be attributable to increased background hydrolysis). […] Thus the ratio of the metribuzin to DMSO signal as well as the increase in signal relative to the w/t bx9 is used to help distinguish those mutations most likely to offer the highest activity to metribuzin. A follow up assay monitored by, for example, LC MS is one method to distinguish these cases more quantitatively. The tables below summarise the results from two different sets of luminescence plate assays to detect single mutations giving improvements in the magnitude of the signal with metribuzin relative to w/t bx9 and/or the apparent specificity for metribuzin as measured by the deviation of the ratio of metribuzin to DMSO control activity from the bx9 w/t value of around unity.
A further separate screen was carried out to explore a library of additional mutations at various positions within the context of SEQ ID No: 17 for improved metribuzin activity. These were assayed, assessed and scored as above. […] These were S75K (2.5)(1.25), A236G (4.0)(1.15), A433V (3.3)(9.0) and R449C (1.8)(1.2).
A yet further and more comprehensive screen was carried out to explore saturation mutagenesis at all remaining amino acid positions within the context of SEQ ID No:17 for improved metribuzin activity. Again these were assayed, assessed and scored as above and the results of (out of the thousands screened) of the subset that were of interest are summarized in Table 16.

Row | Molecule | metribuzin signal relative to the SEQ ID No:17 control (first parentheses) | ratio of metribuzin to DMSO signal (second parentheses) | SIGNAL: metribuzin signal of mutant divided by the signal of the SEQ ID No. 17 control | luminescence signal in the DMSO control | luminescence signal observed with 2 mM metribuzin | RATIO of the metribuzin signal to the DMSO signal (2 mM metribuzin vs DMSO control, same mutant)
1 | V360M: additional mutation in SEQ ID No: 17 (protein, Mutated Zea mays Bx9 protein sequence) MASSRTGAGAGGRVVVFPFPFQGHFNPVMRLARALHARGLAITVFHSGALDPADYPADYRFVPVTVEADPKLLASEDIAAIVTTLNASCDAPFRARLSALLAAEGRDSVRCVFTDVVWNAVLTASSDLGVPALGMMTASAASLRDYMAYRTLIDKGYLPVKEERKEDPVPELPPYLVKDLLRVDTSDLEEFAELLARTVTAARRASGLIFNTFPLIETDTLAEIHKALSVPVFAVAPLNKLVPTATASLHGVVQADRGCLQWLDTQQPGSVLYVSFGSFAAMDPHEFVELAWGLADSKRPFVWVVRPNLIRGFESGALPDGVEDEVRGRGIVVKWAPQEEVLAHPAVGGFLTHNGWNSTMEAISEGVPMVCCPRHGDQFGNMRYVCDVWKVGTELVGEQLERGQVKAAIDRLFGTKEGEEIKERMKEFKIAAAKGIGIGVDVDETASPRTDLTDLVDLIKSF | 2.0 | 1.28 | 2.02 | 2.88E+06 | 3.68E+06 | –
2 | S364L: additional mutation in SEQ ID No: 17 (protein, Mutated Zea mays Bx9 protein sequence) MASSRTGAGAGGRVVVFPFPFQGHFNPVMRLARALHARGLAITVFHSGALDPADYPADYRFVPVTVEADPKLLASEDIAAIVTTLNASCDAPFRARLSALLAAEGRDSVRCVFTDVVWNAVLTASSDLGVPALGMMTASAASLRDYMAYRTLIDKGYLPVKEERKEDPVPELPPYLVKDLLRVDTSDLEEFAELLARTVTAARRASGLIFNTFPLIETDTLAEIHKALSVPVFAVAPLNKLVPTATASLHGVVQADRGCLQWLDTQQPGSVLYVSFGSFAAMDPHEFVELAWGLADSKRPFVWVVRPNLIRGFESGALPDGVEDEVRGRGIVVKWAPQEEVLAHPAVGGFLTHNGWNSTVEAILEGVPMVCCPRHGDQFGNMRYVCDVWKVGTELVGEQLERGQVKAAIDRLFGTKEGEEIKERMKEFKIAAAKGIGIGVDVDETASPRTDLTDLVDLIKSF | 3.3 | 1.20 | 3.29 | 5.04E+06 | 6.00E+06 | 1.19
3 | G366H: additional mutation in SEQ ID No: 17 (protein, Mutated Zea mays Bx9 protein sequence) MASSRTGAGAGGRVVVFPFPFQGHFNPVMRLARALHARGLAITVFHSGALDPADYPADYRFVPVTVEADPKLLASEDIAAIVTTLNASCDAPFRARLSALLAAEGRDSVRCVFTDVVWNAVLTASSDLGVPALGMMTASAASLRDYMAYRTLIDKGYLPVKEERKEDPVPELPPYLVKDLLRVDTSDLEEFAELLARTVTAARRASGLIFNTFPLIETDTLAEIHKALSVPVFAVAPLNKLVPTATASLHGVVQADRGCLQWLDTQQPGSVLYVSFGSFAAMDPHEFVELAWGLADSKRPFVWVVRPNLIRGFESGALPDGVEDEVRGRGIVVKWAPQEEVLAHPAVGGFLTHNGWNSTVEAISEHVPMVCCPRHGDQFGNMRYVCDVWKVGTELVGEQLERGQVKAAIDRLFGTKEGEEIKERMKEFKIAAAKGIGIGVDVDETASPRTDLTDLVDLIKSF | 3.4 | 1.34 | 3.38 | 4.62E+06 | 6.17E+06 | –
4 | G418Y: additional mutation in SEQ ID No: 17 (protein, Mutated Zea mays Bx9 protein sequence) MASSRTGAGAGGRVVVFPFPFQGHFNPVMRLARALHARGLAITVFHSGALDPADYPADYRFVPVTVEADPKLLASEDIAAIVTTLNASCDAPFRARLSALLAAEGRDSVRCVFTDVVWNAVLTASSDLGVPALGMMTASAASLRDYMAYRTLIDKGYLPVKEERKEDPVPELPPYLVKDLLRVDTSDLEEFAELLARTVTAARRASGLIFNTFPLIETDTLAEIHKALSVPVFAVAPLNKLVPTATASLHGVVQADRGCLQWLDTQQPGSVLYVSFGSFAAMDPHEFVELAWGLADSKRPFVWVVRPNLIRGFESGALPDGVEDEVRGRGIVVKWAPQEEVLAHPAVGGFLTHNGWNSTVEAISEGVPMVCCPRHGDQFGNMRYVCDVWKVGTELVGEQLERGQVKAAIDRLFGTKEYEEIKERMKEFKIAAAKGIGIGVDVDETASPRTDLTDLVDLIKSF | 3.1 | 1.47 | 3.11 | 3.86E+06 | 5.67E+06 | –
5 | H375Y: additional mutation in SEQ ID No: 17 (protein, Mutated Zea mays Bx9 protein sequence) MASSRTGAGAGGRVVVFPFPFQGHFNPVMRLARALHARGLAITVFHSGALDPADYPADYRFVPVTVEADPKLLASEDIAAIVTTLNASCDAPFRARLSALLAAEGRDSVRCVFTDVVWNAVLTASSDLGVPALGMMTASAASLRDYMAYRTLIDKGYLPVKEERKEDPVPELPPYLVKDLLRVDTSDLEEFAELLARTVTAARRASGLIFNTFPLIETDTLAEIHKALSVPVFAVAPLNKLVPTATASLHGVVQADRGCLQWLDTQQPGSVLYVSFGSFAAMDPHEFVELAWGLADSKRPFVWVVRPNLIRGFESGALPDGVEDEVRGRGIVVKWAPQEEVLAHPAVGGFLTHNGWNSTVEAISEGVPMVCCPRYGDQFGNMRYVCDVWKVGTELVGEQLERGQVKAAIDRLFGTKEGEEIKERMKEFKIAAAKGIGIGVDVDETASPRTDLTDLVDLIKSF | 3.8 | 2.33 | 3.80 | 2.97E+06 | 6.93E+06 | –
6 | R424P: additional mutation in SEQ ID No: 17 (protein, Mutated Zea mays Bx9 protein sequence) MASSRTGAGAGGRVVVFPFPFQGHFNPVMRLARALHARGLAITVFHSGALDPADYPADYRFVPVTVEADPKLLASEDIAAIVTTLNASCDAPFRARLSALLAAEGRDSVRCVFTDVVWNAVLTASSDLGVPALGMMTASAASLRDYMAYRTLIDKGYLPVKEERKEDPVPELPPYLVKDLLRVDTSDLEEFAELLARTVTAARRASGLIFNTFPLIETDTLAEIHKALSVPVFAVAPLNKLVPTATASLHGVVQADRGCLQWLDTQQPGSVLYVSFGSFAAMDPHEFVELAWGLADSKRPFVWVVRPNLIRGFESGALPDGVEDEVRGRGIVVKWAPQEEVLAHPAVGGFLTHNGWNSTVEAISEGVPMVCCPRHGDQFGNMRYVCDVWKVGTELVGEQLERGQVKAAIDRLFGTKEGEEIKEPMKEFKIAAAKGIGIGVDVDETASPRTDLTDLVDLIKSF | 2.5 | 1.14 | 2.51 | 4.02E+06 | 4.58E+06 | –
